Columns and labels:
Assay in all cases: cell-based or functional assay
[1] = target: hemagglutinin (HA) of A/Singapore/6/86 (H1N1) on pseudotyped lentivirus (Influenza virus A/Singapore/6/86 (H1N1)) (UniProt A3DRP0)
[2] = target: hemagglutinin (HA) of A/Beijing/262/95 (H1N1) on pseudotyped lentivirus (Influenza virus A/Beijing/262/95 (H1N1))
[3] = target: hemagglutinin (HA) of A/Solomon Islands/3/06 (H1N1) on pseudotyped lentivirus (Influenza virus A/Solomon Islands/3/06 (H1N1))
[4] = target: hemagglutinin (HA) of A/South Carolina/1/18 (H1N1) on pseudotyped lentivirus (Influenza virus A/South Carolina/1/18 (H1N1)) (UniProt Q9WFX3)
[5] = target: hemagglutinin (HA) of A/New York/146/00 (H1N1) on pseudotyped lentivirus (Influenza virus A/New York/146/00 (H1N1))
[6] = target: hemagglutinin (HA) of A/Puerto Rico/8/34 (H1N1) on pseudotyped lentivirus (Influenza virus A/Puerto Rico/8/34 (H1N1)) (UniProt P03452)
[7] = target: hemagglutinin (HA) of A/Iowa/43 (H1N1) on pseudotyped lentivirus (Influenza virus A/Iowa/43 (H1N1)) (UniProt A4GCK8)
[8] = target: hemagglutinin (HA) of A/Hong Kong/117/77 (H1N1) on pseudotyped lentivirus (Influenza virus A/Hong Kong/117/77 (H1N1)) (UniProt P18875)
[9] = target: hemagglutinin (HA) of A/New Caledonia/20/99 (H1N1) on pseudotyped lentivirus (Influenza virus A/New Caledonia/20/1999 (H1N1)) (UniProt Q289M7)
[10] = target: hemagglutinin (HA) of A/Fort Monmouth/1/47 (H1N1) on pseudotyped lentivirus (Influenza virus A/Fort Monmouth/1/47 (H1N1)) (UniProt A4U7A6)
[11] = target: hemagglutinin (HA) of A/New York/8/06 (H1N1) on pseudotyped lentivirus (Influenza virus A/New York/8/06 (H1N1))
[12] = target: hemagglutinin (HA) of A/New York/653/96 (H1N1) on pseudotyped lentivirus (Influenza virus A/New York/653/96 (H1N1))
[13] = target: hemagglutinin (HA) of A/New Jersey/76 (H1N1) on pseudotyped lentivirus (Influenza virus A/New Jersey/76 (H1N1))

Row | Substance | Neutralization IC50, lentivirus pseudotype neutralization assay [1] | Neutralization IC50, lentivirus pseudotype neutralization assay [2] | Neutralization IC50, lentivirus pseudotype neutralization assay [3] | Neutralization IC50, lentivirus pseudotype neutralization assay [4] | Neutralization IC50, lentivirus pseudotype neutralization assay [5] | Neutralization IC50, lentivirus pseudotype neutralization assay [6] | Neutralization IC50, lentivirus pseudotype neutralization assay [7] | Neutralization IC50, lentivirus pseudotype neutralization assay [8] | Neutralization IC50, lentivirus pseudotype neutralization assay [9] | Neutralization IC50, lentivirus pseudotype neutralization assay [10] | Neutralization IC50, lentivirus pseudotype neutralization assay [11] | Neutralization IC50, lentivirus pseudotype neutralization assay [12] | Neutralization IC50, lentivirus pseudotype neutralization assay [13]
1 | monoclonal antibody 441D6 | 0.01 µg/mL | 0.07 µg/mL | 0.29 µg/mL | 0.04 µg/mL | 0.01 µg/mL | 0.08 µg/mL | 11.1 µg/mL | 0.04 µg/mL | 0.04 µg/mL | 0.02 µg/mL | 0.14 µg/mL | 0.02 µg/mL | 0.03 µg/mL
2 | monoclonal antibody CH65 (anti-receptor binding site of HA) | < 0.005 µg/mL | 0.01 µg/mL | 1.3 µg/mL | 0.57 µg/mL | 0.03 µg/mL | 0.44 µg/mL | > 50 µg/mL | 0.97 µg/mL | 0.01 µg/mL | 5.86 µg/mL | 0.02 µg/mL | < 0.005 µg/mL | > 25 µg/mL
3 | monoclonal antibody FI6v3 (anti-HA stem region) | 0.01 µg/mL | 1.01 µg/mL | 0.94 µg/mL | 4.4 µg/mL | 0.08 µg/mL | 0.97 µg/mL | 3.4 µg/mL | 0.09 µg/mL | 0.09 µg/mL | 22.2 µg/mL | > 25 µg/mL | 0.15 µg/mL | 0.36 µg/mL

From US20220054419A1
